{
  "source": "patent US20230210968A1",
  "about": "“RIBONUCLEOPROTEIN APPROACH TO BOOST THE STING SIGNALING FOR CANCER IMMUNOTHERAPY” (MASSACHUSETTS INSTITUTE OF TECHNOLOGY, priority 2020, published 2023)",
  "molecules": {"B1": {"name": "mSTINGΔTM (mouse STING amino acids 138-378) (other)", "chain": "LTPAEVSAVCEEKKLNVAHGLAWSYYIGYLRLILPGLQARIRMFNQLHNNMLSGAGSRRLYILFPLDCGVPDNLSVVDPNIRFRDMLPQQNIDRAGIKNRVYSNSVYEILENGQPAGVCILEYATPLQTLFAMSQDAKAGFSREDRLEQAKLFCRTLEEILEDVPESRNNCRLIVYQEPTDGNSFSLSQEVLRHIRQEEKEEVTMNAPMTSVAPPPSVLSQEPRLLISGMDQPLPLRTDLI", "notes": "Runs as a dimer (~60 kDa) without cGAMP and as a tetramer (~120 kDa) with cGAMP; Entries with this molecule as both partners are self-association; also called mouse STINGΔTM; recombinant transmembrane-deficient STING"}, "B2": {"name": "mouse STINGΔTM Q272A/A276Q (other)", "chain": "B1 chain with Q135A, A139Q", "notes": "Expressed His-tagged; also called Q272A/A276Q mutant; functional double mutant at the tetramer interface"}, "B3": {"name": "mSTINGΔTM R237A-Y239A (other)", "chain": "B1 chain with R100A, Y102A", "notes": "Expressed His-tagged; also called STINGΔTM R238A/Y240A; R237A/Y239A mutant STINGΔTM"}},
  "key": {"[1]": {"system": "STINGΔTM-induced STING signaling in HEK293T cells", "test": "Interferon activity in HEK293T cells pretreated with chemical inhibitors, then cGAMP-STINGΔTM", "assay_type": "cell-based, human", "details": "increasing inhibitor concentrations before cGAMP-STINGΔTM treatment", "description": "For the HEK293T cells, a reporter derivative from this cell line was first generated by transfecting pGL4.45[luc2P/ISRE/Hygro] (Promega company) and stably selected in 200 μg/ml hydromycin. The pGL4.45[luc2P/ISRE/Hygro] vector contains five copies of an interferon-stimulated response element (ISRE) that drives transcription of the luciferase reporter gene luc2P (Photinus pyralis). luc2p is a synthetically-derived luciferase sequence with humanized codon optimization that is designed for high expression and reduced anomalous transcription. The luc2P gene contains hPEST, a protein destabilization sequence, which allows luc2P protein levels to respond more quickly than those of […] to induction of transcription. […] Commercial transfection reagent TranslT-X2TM was used to help transfection (2 μg pDNA mixed with 4 μL TranslT-X2TM in 250 μL Opti-MEM media for each 6-well). […] Transfected cells were also harvested for western blotting."}, "[2]": {"system": "MC38 cells", "test": "Therapeutic treatment study, MC38 colon cancer model", "assay_type": "in vivo, C57BL/6 mice", "details": "intratumoral, 100 μg protein and/or 2.5 μg cGAMP, days 7, 14, 21, 28, 35", "quoted_text": "A therapeutic treatment study with an MC38 colon cancer model was then performed. […] The tumor size and survival were monitored on a schedule similar to that of the prophylactic study."}, "[3]": {"system": "intracellular trafficking of the tetrameric complex (EEA1, TBK1, Golgi apparatus, LAMP1)", "test": "Immunocytochemistry / confocal microscopy of intracellular trafficking", "assay_type": "cell-based", "description": "Immunocytochemistry: Transfection and immune staining were performed in Millicell® EZ chamber slides (Millipore Sigma, Temecula, Calif., USA). […] Cells were imaged with an Inverted Olympus IX83 microscope equipped with a Hamamatsu ImagEM high sensitivity camera at the Swanson Biotechnology Center (MIT)."}, "[4]": {"molecular_target": "the molecule itself", "test": "FPLC size exclusion, cGAMP titration; self-association"}, "[5]": {"test": "Transmission electron microscopy particle size", "details": "in PBS"}, "[6]": {"molecular_target": "the molecule itself", "test": "FPLC size exclusion with cGAMP; self-association"}, "[7]": {"details": "tetrameric complex, 6 h post-transfection"}},
  "note": "Where a chain is given by its changes, count along the chain named. Names may count otherwise.",
  "data": [
    {"molecule": "CCN(CC)CCCC(C)Nc1ccnc2cc(Cl)ccc12", "note": "(stereo not shown) [CQ, chloroquine]", "values": [
      {"measurement": "interferon activity after inhibitor pretreatment", "setting": "[1]", "result": "increased interferon activity"}
    ]},
    {"molecule": "O=C(NCCCNc1nc(Nc2cccc(CN3CCOCC3)c2)ncc1C1CC1)C1CCC1", "note": "[MRT, MRT67307]", "values": [
      {"measurement": "interferon activity after inhibitor pretreatment", "setting": "[1]", "result": "decrease with increasing concentrations"}
    ]},
    {"molecule": "Nc1nc2c(ncn2[C@@H]2O[C@@H]3COP(=O)(O)O[C@H]4[C@@H](O)[C@H](n5cnc6c(N)ncnc65)O[C@@H]4COP(=O)(O)O[C@@H]2[C@@H]3O)c(=O)[nH]1", "note": "[cGAMP, 2′3′ cyclic guanosine monophosphate-adenosine monophosphate]", "values": [
      {"measurement": "tumor burden", "setting": "[2]", "result": "significantly reduced tumor burden"}
    ]},
    {"molecule": "C[C@H]1CCC/C=C/[C@@H]2C[C@H](O)C[C@H]2[C@H](O)/C=C/C(=O)O1", "note": "[BFA, brefeldin A]", "values": [
      {"measurement": "interferon activity after inhibitor pretreatment", "setting": "[1]", "result": "insignificant effect"}
    ]},
    {"molecule": "CO/C1=C\\C(C)=C\\[C@@H](C)[C@@H](O)[C@@H](C)C/C(C)=C/C=C/[C@H](OC)[C@@H]([C@@H](C)[C@@H](O)[C@H](C)[C@@]2(O)C[C@@H](O)[C@H](C)[C@@H](C(C)C)O2)OC1=O", "note": "[BafA1, bafilomycin A1]", "values": [
      {"measurement": "interferon activity after inhibitor pretreatment", "setting": "[1]", "result": "decreasing activity observed with increasing concentrations"}
    ]},
    {"molecule": "B1", "values": [
      {"measurement": "co-localization with LAMP1", "setting": "[3]; 24 h post-transfection", "result": "co-localization with Lysosomal Associated Membrane Protein 1 (LAMP1) at 24 h post-transfection"},
      {"measurement": "co-localization with Early Endosome Antigen 1 (EEA1)", "setting": "[3]; [7]", "result": "limited co-localization"},
      {"measurement": "co-localization with TBK1", "setting": "[3]; [7]", "result": "co-localization of TBK1 with STINGΔTM in punctate structures"},
      {"measurement": "co-localization with the Golgi apparatus", "setting": "[3]; with or without the addition of BFA", "result": "no significant evidence of STINGΔTM co-localization with the Golgi apparatus"},
      {"measurement": "binding result", "setting": "[4]", "result": "binds"},
      {"measurement": "particle diameter (TEM)", "setting": "[5]", "result": "~14", "unit": "nm"}
    ]},
    {"molecule": "B2", "values": [
      {"measurement": "binding result", "setting": "[6]", "result": "binds"}
    ]},
    {"molecule": "B3", "values": [
      {"measurement": "binding result", "setting": "[4]", "result": "binds"}
    ]}
  ]
}
